Reference: patent US20240218079A1, “PLASMA KALLIKREIN ANTIBODIES AND USES THEREOF” (Astria Therapeutics, Inc., priority 2021, published 2024)

What was measured:
[1] = target: human plasma kallikrein (human) (UniProt P03952)
[2] = target: human plasma kallikrein (human) (UniProt P03952); remark: listed apart in the source

Chain of human plasma kallikrein (human) (P03952 20-390 S143N limits assumed, chain 1 of 2): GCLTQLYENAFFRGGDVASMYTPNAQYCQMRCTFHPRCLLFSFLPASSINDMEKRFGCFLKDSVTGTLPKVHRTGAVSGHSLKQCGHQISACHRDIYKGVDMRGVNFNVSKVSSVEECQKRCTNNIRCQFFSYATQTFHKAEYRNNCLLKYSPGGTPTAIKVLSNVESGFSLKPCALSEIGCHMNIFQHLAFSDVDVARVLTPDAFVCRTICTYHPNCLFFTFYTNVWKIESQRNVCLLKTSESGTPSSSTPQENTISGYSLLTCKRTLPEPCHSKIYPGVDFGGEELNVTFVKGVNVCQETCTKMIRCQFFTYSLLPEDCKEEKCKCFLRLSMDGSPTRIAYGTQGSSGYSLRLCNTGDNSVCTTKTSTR
Chain of human plasma kallikrein (human) (P03952 391-638 limits assumed, chain 2 of 2): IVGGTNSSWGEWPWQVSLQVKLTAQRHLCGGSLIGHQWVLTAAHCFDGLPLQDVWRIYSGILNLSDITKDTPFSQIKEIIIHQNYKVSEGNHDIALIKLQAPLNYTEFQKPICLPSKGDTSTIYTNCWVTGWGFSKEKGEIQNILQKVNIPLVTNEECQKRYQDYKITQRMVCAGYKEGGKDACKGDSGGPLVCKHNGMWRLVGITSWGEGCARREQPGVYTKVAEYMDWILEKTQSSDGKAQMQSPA

B1: C1inh (protein, UniProt P05155 23-500, looked up, species assumed)
Plasma protease C1 inhibitor: NPNATSSSSQDPESLQDRGEGKVATTVISKMLFVEPILEVSSLPTTNSTTNSATKITANTTDEPTTQPTTEPTTQPTIQPTQPTTQLPTDSPTQPTTGSFCPGPVTLCSDLESHSTEAVLGDALVDFSLKLYHAFSAMKKVETNMAFSPFSIASLLTQVLLGAGENTKTNLESILSYPKDFTCVHQALKGFTTKGVTSVSQIFHSPDLAIRDTFVNASRTLYSSSPRVLSNNSDANLELINTWVAKNTNNKISRLLDSLPSDTRLVLLNAIYLSAKWKTTFDPKKTRMEPFHFKNSVIKVPMMNSKKYPVAHFIDQTLKAKVGQLQLSHNLSLVILVPQNLKHRLEDMEQALSPSVFKAIMEKLEMSKFQPTLLTLPRIKVTTSQDMLSIMEKLEFFDFSYDLNLCGLTEDPDLQVSAMQHQTVLELTETGVEAAAASAISVARTLLVFEVQQPFLFVLWDQQHKFPVFMGRVYDPRA
IC50 (read off the curve) [1]: 3 nM
IC50 (read off the curve), lower panel, 10 nM pKal [2]: 1e-08 M
IC50 (read off the curve), upper panel, 1 nM pKal [2]: 4e-09 M
